The source of these data is patent US20250268994A1.

The target of the test is delta (India) variant S glycoprotein of SARS-CoV-2 (SARS-CoV-2) (UniProt P0DTC2). In words: cell-based or functional assay.
On to “hsACE2 H374N H378N (variant polypeptide encoded by SEQ ID NO: 6) (from UniProt Q9BYF1 18-740) (receptor)”, for which the Preliminary Estimate of IC50 (nM), RVP neutralization is 8.29 nM.
In the case of “hsACE2 N90D R273A (variant polypeptide encoded by SEQ ID NO: 4) (from UniProt Q9BYF1 18-740) (receptor)”, the Preliminary Estimate of IC50 (nM), RVP neutralization is 2.74 nM.
“hsACE2 N90D T92A (variant polypeptide encoded by SEQ ID NO: 5) (from UniProt Q9BYF1 18-740) (receptor)”: the Preliminary Estimate of IC50 (nM), RVP neutralization was 2.33 nM.
